According to patent US7060670B1, “Stereoselective antifibrillogenic peptides and peptidomimetics thereof” (Neurochem (International) Limited, priority 1999, dated 2006):
“Also recorded” adds a separate entry of the source. Non-standard residues stand in square brackets, D forms with d. No end group written: not given here.

Assays:
[1] = biological target: T1, Aβ(1–40) (Homo sapiens, UniProt P05067); assay: thioflavin T fluorescence assay for fibrillogenesis of Aβ(1–40); assay type: biochemical; conditions: for Order Of Potency of Peptide Inhibitors, Tested at 20 μM / Order Of Potency of Peptide Inhibitors, Tested at 80 μM: rank, 1 = strongest activity, 11 = weakest, Aβ(1–40) 20 μM, by first appearance of fluorescence over 5-90 hours; for Order Of Potency of Peptide Inhibitors, Tested at 20 μM: peptide 20 μM; for Order Of Potency of Peptide Inhibitors, Tested at 80 μM: peptide 80 μM; for concentration required to give an equivalent inhibition: all-[D] versus all-[L] stereoisomer; for inhibition of [L]-Aβ (1–40) assembly/fibrillogenesis compared with the opposite stereoisomer: FIG. 2, all-[L] Aβ (1–40)
T1 construct: Aβ (1–40) 95% purity (American Peptide Company); purchased American Peptide Company, Inc 62-0-78
Source text: The thioflavin T fluorescence assay for fibrillogenesis is based on the principle that the fluorescent dye, thioflavin T, binds specifically to fibrillar, but not to unaggregated Aβ peptide (LeVine III, H., 1993, Protein Science 2:404–410). Upon binding, thioflavin T develops a characteristic fluorescence (Naiki, H., et al., 1996, Lab. Invest. 74: 374–383) which can be easily detected. The dye is believed to interact with the stacked cross-β pleated sheets, the common structural motif of all amyloids (LeVine III, H., 1995, Amyloid: Int. J. Exp. Clin Invest. 2:1.6). Thioflavin T is widely used to assay the effect of compounds on Aβ peptide fibrillogenesis (Bronfman, P. C., et al., 1995, Neuroscience Lett. 218:201–203). In this assay test compounds are incubated with a solution of Aβ(1–40) (20 μM) containing 10 μM thioflavin T, in 0.02M Tris/0.02M acetate/0.15M NaCl/0.005% azide/pH 7.40 at 37° C. in sealed 384 well microplates. Readings (ex 430 nm/em 485 nm) are taken at various time intervals with a microplate fluorescence reader. An increase in fluorescence signifies the appearance of amyloid or intermediates in the production of amyloid. Inhibitors of fibrillogenesis will lead to less fluorescence production. The results illustrated in Table 1 below, are based on the fluorescence production in the presence of test peptides at either 20 μM or 80 μM concentration, at the time intervals of 5, 19, 45, 67, 77 and 90 hours, compared to a control, buffer alone, without added inhibitory peptide. Protocol Aβ peptide: Aβ (1–40) 95% purity (American Peptide Company, Inc, Sunnyvale, Cal. USA, cat. 62-0-78) is disaggregated in trifluoroacetic acid and filtered through a […] filter, (Whatman Anotop 25 plus, 0.02 μm, Catalogue no. 6809 4102) in hexafluoroisopropanol (HFIP). Solutions of Aβ (1–40) at 600 μM in HFIP are stored at −80° C. Assay mixture: The mixture is prepared as two solutions that are combined upon addition to the 384 well microplate (Corning Costar cat. 3705). • i) Solution A consists of test peptides in 0.02M Tris/0.02M acetate/0.15M NaCl/0.01% azide at pH 7.40 or buffer alone (control), • ii) Solution B consists of Aβ(1–40) 40 μM, thioflavin T 20 μM in 0.02M Tris/0.02M acetate/0.15M NaCl at pH 7.40. This solution is prepared by drying the Aβ peptide under nitrogen and then resuspending this in 0.04M Tris base with 15 minutes sonication. An equal volume of 0.04M acetic acid containing 0.3 M NaCl is added and the solution is adjusted to pH 7.40±0.02. A small volume of 5 mM thioflavin T is added to the solution to give a final 20 μM concentration of thioflavin T. • iii) The microplate is loaded with 40 μL of solution A followed by 40 μL of solution B which gives a final 20 μM Aβ(1–40), 10 μM thioflavin T, and either 20 μM, 80 μM or 100 μM test compound in 0.02M Tris/0.02M acetate/0.15M NaCl/0.005% azide, pH 7.40. The plate is sealed and loaded into the microplate fluorescence reader. Fluorescence measurement data analysis: The HTS-7000 Bio Assay Reader, Perkin Elmer, is used to perform kinetic runs of about 5 days. Readings were taken at various time intervals, 5, 19, 45, 67, 77 and 90 hours, with one minute shaking before each reading. Bandpass filters used were: excitation 430 nm, emission […]. Calculations The rank order of efficacy of the peptides is determined by observing which peptides allow the appearance of fluorescence, above the background level, first. For example in the presence of buffer control alone, fluorescence appears earlier than when any of the peptides is present.

[2] = biological target: T2, Aβ40 (Homo sapiens, UniProt P05067); assay: CD spectrum of Aβ40 incubated with peptide (β-sheet content); assay type: biochemical; conditions: for β-sheet content of Aβ40 by CD spectrum at time t=0: physiological conditions
T2 construct: when incubated with Aβ40 under physiological conditions
Source text: (§1) It is the understanding of the inventors that this interesting observation will lead to a greater understanding of fibrillogenesis of Aβ40 and Aβ42 peptides and as a result, will provide important information for the design of potent anti-fibrillogenic compounds for Aβ, other amyloidotic peptides such as AA, AL and IAPP for the treatment of diseases such as Alzheimer's, Type II Diabetes and amyloidosis related disorders. The same principle can also be applied to the design of peptide type compounds for the inhibition of binding of various chemokines to the cell surface as well as inhibition of self assembly and cellular adherence of prion proteins.

[3] = system: all-[D]-Aβ (1–40); assay: thioflavin T fluorescence assay for fibril formation by [D]-Aβ (1–40); assay type: biochemical; conditions: FIG. 3
[4] = biological target: Aβ (Homo sapiens, UniProt P05067); assay: Aβ-NBD environmental probe fibrillogenesis assay; assay type: biochemical
[5] = biological target: T2, Aβ40; assay: electron microscopy of peptide/Aβ40 mixture; assay type: biochemical; conditions: mixture of peptide and Aβ40
Source text: as §1

[6] = system: 125I-LBMP1620; conditions: peptide synthesized by SPOT technique; cited from earlier work
[7] = system: fetal rat primary cortical neurons; assay: propidium iodide assay on primary cortical neurons with Aβ; assay type: cell-based; conditions: FIG. 7; compared to Congo red and Aβ alone; 3 days; listed as all-[D]-Lys-Leu-Val-Phe-Phe-Ala
Method: FIG. 7 uses the propidium iodide assay on primary cortical neurons. Briefly, fetal rat primary cortical neurons are isolated and cultured according to Durkin, J. P. et al., J. Neurochem., 66:951–962, 1996. Neurons are plated in a 48 well microplate. 7 days after plating the neuronal culture media is supplemented with B27 (Life Technologies, Data sheet form No. 3755). A mixture of Aβ and test peptide is added to the cortical neurons for 3 days at 37° C. and 5% CO2.
Cell viability is then visually assessed as the proportion of phase-bright cells that exclude propidium iodide, since only dead cells take up propidium iodide.

[8] = system: SH-SY5Y human neuroblast cell line; assay: MTT cytoprotection assay, Aβ (1–40) toxicity on SH-SY5Y cells; assay type: cell-based; conditions: FIG. 6, 100 μM test peptide, listed as all-[D]-Lys-Lys-Leu-Val-Phe-Phe-Ala
Method: FIG. 6 uses the MTT assay on SH-SY5Y cells.
A SH-SY5Y human neuroblast cell line (American Type Culture Collection, cat. CRL-2266) is cultured according to technical specifications. Monomerized Aβ (1–40) is prepared using trifluoroacetic acid and hexafluoroisopropanol, in the same way already described for the thioflavin T fluorescence assay. Monomerized Aβ at various concentrations in TANA buffer (0.02 M TRIS base pH 7.4, 0.02M acetate, 0.15 M NaCl) is added to 100 μM test peptide and the mixture is incubated for 24 hours at 37° C. with agitation, in order to allow polymerization to occur. Cells are adhered to a 96-well microplate for 2 hours at 37° C. and 5% CO2 before the Aβ-peptide mixture, or buffer alone (control), is added. The microplate is gently agitated and incubated for 20–24 hours at 37° C. and 5% CO2. Cell viability is determined by a MTT-based colorimetric assay. The MTT assay (Boehringer Mannheim, Cell Proliferation Kit 1) is based on the principle that the yellow tetrazolium salt MTT is cleaved in metabolically-active cells to produce purple formazan crystals. The formazan crystals are solubilized and the resulting colored solution is quantified using a scanning multiwell spectrophotometer (ELISA reader, Absorbance A560 nm). Cellular toxicity was calculated as follows: […]

[9] = biological target: T3, IAPP (Homo sapiens, UniProt P10997); assay: IAPP fibril formation (thioflavin T assay, circular dichroism, electron microscope); assay type: biochemical; conditions: circular dichroism and thioflavin T assay
T3 sequence (P10997 34-70 limits assumed): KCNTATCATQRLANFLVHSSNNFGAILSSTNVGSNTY
Source text: Other amyloidogenic peptides such as IAPP, have also been tested.
The full-length IAPP is 37 amino acids and the β-sheet region is the 20–29 sequence. The 20–29 sequence is critical for forming β-sheet and has been previously shown to be a key region in modulating IAPP aggregation and folding.
Hexapeptides spanning the 20–29 region (Ser-Asn-Asn-Phe-Gly-Ala-Ile-Leu-Ser-Ser) of the IAPP protein were synthesized and tested for their ability to prevent fibril formation as determined by circular dichroism and the thioflavin T assay. […] These peptides (Ser-Asn-Asn-Phe-Gly-Ala- and Asn-Asn-Phe-Gly-Ala-Ile) were directed towards the central core of the 20–29 region.

T1 sequence (P05067 672-711 limits assumed): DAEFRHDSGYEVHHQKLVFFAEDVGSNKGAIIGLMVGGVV
Chain of Aβ (P05067 672-711 limits assumed): as above
T2 sequence (P05067 672-711 limits assumed): as above

Substance	Order Of Potency of Peptide Inhibitors, Tested at 20 μM [1]	Order Of Potency of Peptide Inhibitors, Tested at 80 μM [1]	also measured
AFFVLK [reference compound]	11 (L) AFFVLK	11 (L) AFFVLK	–
Ala-Phe-Phe-Val-Leu-Lys [(D) AFFVLK] ([dA][dF][dF][dV][dL][dK])	5 (D) AFFVLK	1 (D) AFFVLK	–
Asp-Asp-Asp (DDD; peptide having antifibrillogenic activity and/or neuroprotection) [tripeptide]	–	–	β-sheet content of Aβ40 by CD spectrum after 24 hours incubation [2]: no trace of β-sheet conformation; β-sheet content of Aβ40 by CD spectrum at time t=0 [2]: slight decrease
KKLVFFA [reference compound]	10 (L) KKLVFFA	7 (L) KKLVFFA	concentration required to give an equivalent inhibition [1]: 400 µM
KLVFFA [reference compound]	8 (L) KLVFFA	8 (L) KLVFFA	inhibition of all-[D]-Aβ (1–40) assembly compared with the opposite stereoisomer [3]: more potent inhibitor
KVDDQD [hexapeptide]	–	–	anti-fibrillogenic activity in thioflavin-T based fluorescence assay ([1]; in vitro): confirm this finding; anti-fibrillogenic activity in NBD based fluorescence assay ([4]; in vitro): confirm this finding; β-sheet content of Aβ40 by CD spectrum after 24 hours incubation [2]: dramatic increase; β-sheet content of Aβ40 by CD spectrum at time t=0 [2]: increase; fibrils seen by electron microscopy [5]: failed to show any fibrils
Lys-Ala-Val-Phe-Phe-Ala ([dK][dA][dV][dF][dF][dA]) [(D) KAVFFA]	7 (D) KAVFFA	6 (D) KAVFFA	–
Lys-Ile-Val-Phe-Phe-Ala ([dK][dI][dV][dF][dF][dA]) [(D) KIVFFA]	1 (D) KIVFFA	5 (D) KIVFFA	–
Lys-Leu-Val-Phe ([dK][dL][dV][dF]) [(D) KLVF]	6 (D) KLVF	9 (D) KLVF	–
Lys-Leu-Val-Phe-Phe [(D) KLVFF]	9 (D) KLVFF	10 (D) KLVFF	125I-LBMP1620 binding [6]: failed to bind
Lys-Leu-Val-Phe-Phe-Ala [(D) KLVFFA] ([dK][dL][dV][dF][dF][dA])	3 (D) KLVFFA	1 (D) KLVFFA	inhibition of [L]-Aβ (1–40) assembly/fibrillogenesis compared with the opposite stereoisomer ([1]; listed as all [D]-Lys-Leu-Val-Phe-Phe-Ala): more potent inhibitor; inhibition of [L]-Aβ (1–40) assembly/fibrillogenesis compared with the opposite stereoisomer ([1]; listed as all-[D]-Lys-Leu-Val-Phe-Phe-Ala): much more potent inhibitors; cytoprotective activity against Aβ [7]: potent cytoprotective agents; also recorded: potent cytoprotective activity
Lys-Lys-Leu-Val-Phe-Phe-Ala [(D) KKLVFFA] ([dK][dK][dL][dV][dF][dF][dA])	2 (D) KKLVFFA	1 (D) KKLVFFA	inhibition of [L]-Aβ (1–40) assembly/fibrillogenesis compared with the opposite stereoisomer [1]: much more potent inhibitors; concentration required to give an equivalent inhibition ([1]; listed as all-[D] stereoisomer peptide): 6.1 µM; potency of all-[D] relative to all-[L] stereoisomer peptide ([1]; from 400 μM all-[L] versus 6.1 μM all-[D]): about 60 times; potency at lowest concentration tested versus highest concentration of all-[L] peptide ([4]; all-[D] 25 μM versus all-[L] 800 μM): more potent than the highest concentration of the all-[L] peptide; potency of all-[D] relative to all-[L] stereoisomer peptide ([4]; estimate from 25 μM all-[D] versus 800 μM all-[L]): at least 30 times; inhibition of Aβ (1–40) neurotoxicity (cytoprotection) [8]: potent cytoprotective agents; also recorded: more potent inhibitor
Lys-Phe-Val-Phe-Phe-Ala ([dK][dF][dV][dF][dF][dA]) [(D) KFVFFA]	4 (D) KFVFFA	1 (D) KFVFFA	–
NNFGAI [hexapeptide from the 20–29 β-sheet region of IAPP]	–	–	blocking of IAPP fibril formation [9]: capable of blocking the formation of IAPP fibrils
SNNFGA [hexapeptide from the 20–29 β-sheet region of IAPP]	–	–	blocking of IAPP fibril formation [9]: capable of blocking the formation of IAPP fibrils
